The DeepSol protein solubility set

Test: soluble on expression in E. coli; label from the status in PepcDB or PDB records

Sequence	soluble on expression in E. coli
MSKVLVLKSSILAGYSQSGQLTDYFIEQWREKHVADEITVRDLAANPVPVLDGELVGAMRPGDAPLTPRQQDALALSDELIAELKAHDVIVIAAPMYNFNIPTQLKNYFDLIARAGITFRYTEKGPEGLVTGKRAVVLSSRGGIHKDTPTDLIAPYLKVFLGFIGITDVNFVFAEGIAYGPEVAAKAQADAKAAIDSVVAA	soluble
MGSDKIHHHHHHMSNCFNPANILLPKDGIDMEKWSVIACDQYTSQADYWKTVEEFVGDAPSTLNVVFPEIYLGNKKNDKNCACENGSCADDHTTMYASMSDSERIACINSTMEKYLSDGIIQQVVTDGYVLVERTTESGVRLGIVGLVDLDDYDFDPKNPTLIRATEGTVISRIPPRVKIREHAAIELPHVMLLVDDPVDKADDASDEGKLTDIYNIGNIEHGIIEYVYSLKDSFRKLYDTDLMQGGGHIRGYAIEGEAAKQVTAAFAKKQEQSGGFLFAVGDGNHSLATAKTCWENIRKSQKFTDEQLKTHPARYALVEICNLHSKALEFKPIHRLLTKVNVEDMLAFFNEQLKEQGLECAEGNEIIFEYVESSDSIDENASGYEARVCTYAINIINRGDRLPVEILQGILDKYIKSHEDTEIDYIHGDDALHRLVKETNGCGIFLQSIDKSTLFPAINAGGVLPRKTFSIGEANEKRYYMECHNIQVK	not soluble
LVIVTDPHQRIEWVNAAFEQQTGHSGPSVRGQPLCAVLQGEPAPGGCGDRLRAMLAEGRTARAEVEATAACGRRFWLDVSLQPLLDDEGALDGYMAVASDIT	not soluble
MEERTLVILGATGSIGTQTLDVLKKVKGIRLIGISFHSNLELAFKIVKEFNVKNVAITGDVEFEDSSINVWKGSHSIEEMLEALKPDITMVAVSGFSGLRAVLASLEHSKRVCLANKESLVCGGFLVKKKLKEKGTELIPVDSEHSAIFQVMEPEVEKVVLTASGGALRDWKISKIDRARPEDVLKHPVWNMGARITVDSATMVNKAFEVLEAMELFELPFEKIEVKIHREGLVHGAVVLPDGNVKMVVSPPDMRIPISYALFYPRRVALEPFFLRTISLSFEDPDPEKYPAFFLLKEIKDSYALRTAFNAADEVAVEAFLKGRIRFGGIHRVIEKTLEEFQGYPQPRTLDDVERIHFEAIKKAERVTEWLSSTSY	soluble
MFKKLKASLGIGSAKVDTILDEMSVFQGATLKGHVHIKGGDVEQQIDAITIKLNTEMKVEVDDSVSYQTFTIDQLKAVDPFVIQPNEEKQVPFELKLHDETPITAVSALKNQCNVWVETTLDIDFAIDPRDRDYIEVKPLPVASRVIRAIEQAGFTMVKADVEKGFLRGGSFASRSGIYQELEFRNSGFVSSKEIELSFILEGQVMHCLAEIDRSLSFSGDQYRSFTLPINATDAQVAAAVAPTLSL	not soluble
MSLKYVIGIDLGTSAVKTILVNQNGKVCAETSKRYPLIQEKAGYSEQNPEDWVQQTIEALAELVSISNVQAKDIDGISYSGQMHGLVLLDQDRQVLRNAILWNDTRTTPQCIRMTEKFGDHLLDITKNRVLEGFTLPKMLWVKEHEPELFKKTAVFLLPKDYVRFRMTGVIHTEYSDAAGTLLLHITRKEWSNDICNQIGISADICPPLVESHDCVGSLLPHVAAKTGLLEKTKVYAGGADNACGAIGAGILSSGKTLCSIGTSGVILSYEEEKERDFKGKVHFFNHGKKDSFYTMGVTLAAGYSLDWFKRTFAPNESFEQLLQGVEAIPIGANGLLYTPYLVGERTPHADSSIRGSLIGMDGAHNRKHFLRAIMEGITFSLHESIELFREAGKSVHTVVSIGGGAKNDTWLQMQADIFNTRVIKLENEQGPAMGAAMLAAFGSGWFESLEECAEQFIREAAAFYPKAQNVQKYKTLFDLYKNIYTHTKDLNTALKSFRKNEGHHHHHH	soluble
MGSDKIHHHHHHGTSGTSKSSKTQLTGQSSDGDYEGVIKSGHYQTSKSRGVTNSQDSGNTYNVKSFENGMLGVSKKVFSTKSYVFQEGQYLSSSTVQNWLDRKTKSNPTGLNPKSNGSTSPTKRNPVYIQALEEQDYMTQKNNKLSLGGVTIGIAVNSVDYYKKTQYGATYETKITKAEGEAYAKKAANTVLKRLRKKSALKNVPIVIAIYRQASNDSLVGGNFIAYSENKGSATTVSKWNALSEKNYVFPIESGSSSPNSNDETSFTNFKSQVENFFPNLSGVTAQAHYSGNTLTGMHVNITTQFYSQTEIISFTQYLQTAAQKYLPSSVPIDITVSSTDSVQSFLSRSSGAKKFTSHVFNSY	not soluble
MSLIAPVLKGKGVLITRAKEQASSLSRLIEEAGGVPIEVPLLSFIKTMDVYEEVGASIQSYEWIVFTSANAVRFFFNTWPRQELKKLPSIAAVGSSTQRELSRYGISVDLMPNEYVAESLVETMVKRLKPCRVLFPKGNLARPTVKVGLETNGFIVDEMTVYETKRPLEAKVMLCEAFQKHRIEIITFTSPSAVDHFVTLLDREFILHEHLLYAYIGPIAAARAKQRGLPVHIVAKTYTGEGLVNAICDFVKEDGEGHHHHHH	soluble
MGSDKIHHHHHHMTAAESIYALYPYIQHAQLLAHNEKIKQDNVIFTYTVSLSYDEISLRVLHVDSDNTKHIHIQVLFEINQGKIYVKDLYHNSGAAFELLTSIKSNPSLHQASFAQNSVPASWLSRDILNSLAIADRIAQKAINQYAGDDYRPGYYSQIECSGTQLILSQINHMNSRSLSHKENYSLRNLTFTIPLNGKADSEMLYNTDRIGIMNINFSDHSSANNRSAGDAVKNQIAEEIRLYQNDVE	not soluble
MKFETLDFNDEKDIKNFKTDCGDLQDCFTALPCRPGSNNQLDKRLRSIEWVCKAIVFLTEDFSNCFDKLHEKNAECVQNWNPLPNEIYLEDDKMKVEKMKENACDTYFGKDDCVKKEIIERCGQEEWNTFRKVPN	not soluble
KRAPDGRVLDIAGTEHSLHDLTRGKISLVSFVYLTCGDVNGCPLAMSVFFDVHDASGDLPGLNEDVQLLTISFDPARDTVEAIEAFAYPITSDEQAGDKLNWQVLTTSGPQELRPILDGYGQVVDRSEDQETISHLLRLFLVDRQGDIRNVYGLGFLDPRLLLTDIETLLMEEAGA	soluble
MAEKNHQQQERLPGNPFFPSRSNAGSSFDMPETPHLIDSLTSQIDEFTIQSIIDTQRQSLKRFEKTNEMLMNCAQLGDRRIEKAKRDSVGHKETILQMKTDLEFIFKKIRMFKTVLSSKYPEVYAEVSAELTPKRSEEDE	not soluble
MGHDTIAKFLLTSGSTGNPKAVINTQRMICANQVMIREAMAFLKDEPPVIVDWLPWNHTFGGNHNIGLTLFNGGSMYIDDGKPTPAGIASTIRNLREIAPTVYFNVPKGYESLLPVLREDQQLRKLFFSRLHAMFFSGASLAAHVWNGLDEVAVAETGARVPMLTGLGATETAPFFMSVTPQTSRSGHVGLPVPGLEHHHHHH	not soluble
MTPMKTYDLIVIGTGPGGYHAAIRAAQLGLKVLAVEAGEVGGVCLNVGCIPTKALLHAAETLHHLKVAEGFGLKAKPELDLKKLGGWRDQVVKKLTGGVGTLLKGNGVELLRGFARLVGPKEVEVGGERYGAKSLILATGSEPLELKGFPFGEDVWDSTRALKVEEGLPKRLLVIGGGAVGLELGQVYRRLGAEVTLIEYMPEILPQGDPETAALLRRALEKEGIRVRTKTKAVGYEKKKDGLHVRLEPAEGGEGEEVVVDKVLVAVGRKPRTEGLGLEKAGVKVDERGFIRVNARMETSVPGVYAIGDAARPPLLAHKAMREGLIAAENAAGKDSAFDYQVPSVVYTSPEWAGVGLTEEEAKRAGYKVKVGKFPLAASGRALTLGGAEGMVKVVGDEETDLLLGVFIVGPQAGELIAEAALALEMGATLTDLALTVHPHPTLSESLMEAAEAFHKQAIHILNR	soluble
MKKSLVVCALSAAVLLSGCETVNTTSGGVVGVDRKQSMFSMVSSAEVNQSYAQSYQQTLGEASSQGVLDKTSANAKRLQVIANRLIAQAPTFRPDCAQWKWEVNLIKSDELNANCGPGGKIIFYSGLIEKLKLTDDEIAAVMGHEIAHALREHGREAMSKQYAVGAGKQIATLFGVPQETVALGDNGVNLLMTLPNSRENENEADLIGLELAARAGYNPNAAISLWNKMGQAAGGSAPPEFMSTHPASTSRIASLQAAIPKVMPLYQAAKKSLEHHHHHH	not soluble
MDTLHQQLCTHSGSTSPKGLYLWGDVGRGKTFLMDLFYDALPQRGKLRLHFHRFMARVHQALKVHAGQRDPLKLIAKNLAKECKVLCFDEFFVSDIGDAMILAGLFETLFAQGVVLVATSNIPIERLYENGLARHRFLPCIALLQAHTQMLHLNGKQDHRLHALSAKPSAEALAATSHNIGLTGTLDFDGIFAALTQNSPSIKDGKLRVCQREISVIRATTENQLPSVAWFDFNALCDGPRSQLDYIEIASRFKVLMLSNVPRLGGEVKGWIRARGTEDGTGDNQAATTGERQLSYAVNDDPARRFISLIDELYDQDVSLYLSCDVPLTELYQGGALSFEFRRTYSRLIEMSHSAAMKLTY	not soluble
GMSEPEVPFKVVAQFPYKSDYEDDLNFEKDQEIIVTSVEDAEWYFGEYQDSNGDVIEGIFPKSFVAVQG	soluble
MGSDKIHHHHHHMSKKVVLTREASKNKPWQTYFSQNGYEVMSIPLIKTQPIKINLTREQQETDWLFLTSANAVEYFFTNQYERSNYKIAVIGEKTKEKLAEFGHEPSFVPSIYQSEVFLEEWLNENPEKTSILLPQSNLSRTIIKDTLIEKGYIVFSIELYETIFPEASKKLLTEQLKLNETQIIVFASPSAWKNFYSIAKSFPAQKEKWHIASIGSITTEAILADGWEVKYQPKTFTMKHLADLIIQEELK	not soluble
MAADISESSGADCKGDPRNSAKLDADYPLRVLYCGVCSLPTEYCEYMPDVAKCRQWLEKNFPNEFAKLTVENSPKQEAGISEGQGTAGEEEEKKKQKRGGRGQIKQKKKTVPQKVTIAKIPRAKKKYVTRVCGLATFEIDLKEAQRFFAQKFSCGASVTGEDEIIIQGDFTDDIIDVIQEKWPEVDDDSIEDLGEVKK	not soluble
MNKDNSPSESLVNSSASEDKTVKTSMSANNPSINDSSLPERLPAMCGCDSQNREESANSGVQLSDHANESLSKQADDVIYEGGLEDKDSVFRAIIEDDDACEVLDDGIDNCEVEIPVAIECHLCNEMMNLCLRRTRYRGQAREYPAYRCNRKGCQTFRSIRKVFGNCMSDVDNSGDATTRTMIYHPPHKVRKTSPGEFSDDDSKEFVVQRVYIPKIDNRNKDQSVKSLSVTDRMRKANQDRAIVFSEFADQLRRDIVANKRVRIKKHVEEDQQGTLFYISKELNPQEVIELQDVIIKTLISMRKIPPPMTMDDLPLFANCPYSKKAVDAGEFDMSETEERPRPKLPKTIYQNTRTHSDSLTERSRHFTYDELKHSMEANAEGPSTCRIGISRSERNSESLQWIGLKTYEDSTDGFAKSVNSEGERQQGINGQIDDEVFEDESRFKPVASMQDVMRTLSTPSTLRPPVSPLMKSFSSMDSSNFKNPINAHPPMFFSDPHFLINNNQFNSPTPFYALNSYFPSFPMDSSQVYQNATDEHFTPSGASEVVCTEQTPGHHFTYIHPDSGVRLTDPSAFLTSFVPSPITKVPPINFNDETSRSRSASAPSTSVYNTGEFERSHKKYENEEDEKLMDNQNFSDEQPKE	not soluble
MGSDKIHHHHHHMEASSGHQLMAETLGKFVSLVSKRLPDDVMAKLTELKGIETEPLAKSLYACMFENMEKAESLNRPTCQDTGVIQFFVRAGAKFPYLGELRGILKEATILSTKQAPLRLNAVEPFDEKNTGTNVGTKVPWIEWDIVSDDDSVEIEVYMAGGGCSLPGRSIVLPPLAGYEGAVKFVFDTIVEWGINACPPLTVGVGIGTCSTSAAKLSKMAMLRKLGSSNPHPRAAEMERRIQEGLDAIGLGPQGISGHRSVLGVHVEGMAHHPSVLGVGVTVGCWANRHGIIQFNKNLQYTMISHQGVEL	not soluble
